Experimental data: patent publication US10106582B2, “Complex-formation-modulating agents and uses therefor” (Factor Therapeutics Limited, priority 2012, dated 2018)

What was measured:
IGFBP-3 = molecular target: T1, IGFBP-3 (Homo sapiens, UniProt P17936); assay: VN-peptide array: binding of IGFBP-3 to immobilized overlapping 16-mer VN peptides; settings: spot stronger than negative controls = positive hit
T1 construct: purchased GroPep
From the text: (§1) The inventors designed small-molecule VN-peptides that could potentially disrupt the formation of the IGF-I:IGFBP:VN trimeric or the IGF-II:VN dimeric complexes by binding to the IGFBPs and/or IGF-II and preventing their association with VN within the complex. To design peptides, the binding sites of IGFBP-3/-5 and IGF-II on VN were first determined using VN-peptide arrays. The entire VN protein sequence, excluding the signal peptide (residues 1-19), was divided into overlapping 16-mer peptides with 3AA frameshift/offset (for peptide sequences refer to Table 6) and immobilized onto cellulose membranes (peptide spotting was outsourced to PepMetric Technologies Inc). For a schematic of the arrangement of VN peptides and controls refer to FIG. 2. The resultant peptide arrays were incubated either with IGFBP-3, IGFBP-5 or IGF-II ligands, probed with the respective antibodies, the membranes developed using ECL, and imaged using the ChemiDoc™ XRS system (BioRad). The spots on the membrane were analysed using TotalLab array quantification software (TotalLab Ltd, Newcastle, England) identifying positive peptide spots by comparing each spot to the combined intensities of the negative controls.
The entire VN protein sequence, excluding the signal peptide (residues 1-19), was divided into overlapping 16-mer peptides with 3 amino acid (AA) frameshift/offset. This yielded 148 overlapping peptides covering the entire VN sequence (residues 20-478) (Table 6) with a resolution of 3 AA. Peptide synthesis and spotting onto a cellulose membrane were outsourced to PepMetric Technologies Inc. (Richmond, BC, Canada). For a diagrammatic illustration of the strategy used to divide an example amino acid sequence into peptides and to spot them onto the membrane, please refer to http://www.pepmetric.com/html/Pep-Overlap.html. The VN-overlapping peptides were generated using FMOC (9-fluorenylmethoxycarbonyl) Solid-Phase SPOT synthesis onto PEG-grafted amine-functionalized cellulose membrane (Whatman® 540 filter paper). The peptides were spotted onto the cellulose membrane in a 10×16 grid with each peptide being 10˜50 nM in concentration with >70% purity. Finally, these membranes were acetylated in order to cap the free ends of the spotted peptides preventing them from degradation during shipping and storage.
Along with the VN-peptides these membranes were also spotted with a positive control (i.e., universal binding peptides tested by the manufacturer to be positive for antibodies from goat, mouse, rat and chicken) and a negative control (ie. non-binding peptides as well as BSA) controls. For a schematic of the arrangement of VN-peptides and controls refer to FIG. 2 and for the sequence of each peptide corresponding to the grid number refer to Table 6. Four such replicate membranes were prepared and stored at room temperature in a clip sealed plastic bag. Long-term storage was at −20° C.
Methanol or ethanol was used to enhance the rehydration of peptide spots that might be hydrophobic. The peptides spotted onto the membranes were activated by incubating in 3 mL of 70% ethanol for five mins. The membranes were subsequently washed three times, 10 minutes each, in 10 mL TBS (Tris Buffered Saline; 8 g NaCl, 0.2 g KCl and 6.1 g Tris Base into 1000 mL of milliQ water, pH 7) with gentle rocking. Membrane blocking was performed by incubating in 10 mL casein-based membrane blocking buffer (MBS; Sigma-Aldrich) overnight at 4° C. The following day, the membranes were washed twice, 10 minutes each, in 10 mL TBS-T (TBS+0.05% Tween-20; pH 7).
Ligands used to test binding to VN-peptides were IGFBP-3, IGFBP-5 and IGF-II. For ligand binding, four separate solutions of 1 μg/mL ligand in 10 mL MBS buffer were prepared and each membrane was incubated in one of the four ligand solutions overnight at 4° C., with gentle rocking. […] The following day, the membranes were washed three times, 10 minutes each, in 10 mL TBS-T. […]

IGFBP-5 = molecular target: T2, IGFBP-5 (Homo sapiens, UniProt P24593); assay: VN-peptide array: binding of IGFBP-5 to immobilized overlapping 16-mer VN peptides; settings: spot stronger than negative controls = positive hit
T2 construct: purchased GroPep
T2 sequence (P24593 21-272): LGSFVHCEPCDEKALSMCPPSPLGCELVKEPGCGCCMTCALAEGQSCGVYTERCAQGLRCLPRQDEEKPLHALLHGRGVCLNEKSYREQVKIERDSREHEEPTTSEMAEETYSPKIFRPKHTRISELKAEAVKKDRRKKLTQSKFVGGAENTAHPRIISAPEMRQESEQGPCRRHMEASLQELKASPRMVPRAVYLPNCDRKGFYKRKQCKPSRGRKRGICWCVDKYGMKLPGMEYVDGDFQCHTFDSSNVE
From the text: as §1
The entire VN protein sequence, excluding the signal peptide (residues 1-19), was divided into overlapping 16-mer peptides with 3 amino acid (AA) frameshift/offset. […]

MCF-7 cells = assay: Transwell migration assay, IGF-I+IGFBP-3+VN (TRI)-stimulated MCF-7 cell migration; format: cell-based, human
Description: FIG. 6 is a graphical representation showing MCF-7 cell migration in response to VN peptides. MCF-7 cells were seeded onto the upper-surface of a Transwell inserts coated on the under-surface with treatments containing IGF-I+IGFBP-3+VN (TRI; 10 nM) with or without increasing concentrations of either peptide P7, P8 or Pneg. Migration was assessed after 15 hours. Data is represented as percentage of change in migration compared to the TRI only control. Error bars indicate standard error mean.
This assay has been repeated three times with treatments tested in triplicate wells in each replicate experiment.
The breast cancer epithelial cell line MCF-7 was used for this assay. Migration was assessed by measuring relative number of cells migrating through 8-μm pore Transwell membranes in response to substrate-bond proteins complexes. IGFBP-3 was allowed to bind either peptide P7, P8 or a combination of P7 and P8 for 2 hours. IGF-I was later added to this protein mix which was then added to Transwells pre-coated with VN. Post-overnight incubation, unbound proteins were removed, Transwells washed twice and cells seeded onto the upper chamber. Cells migrated to the under-surface over 15 hours were indirectly quantified using crystal violet staining.

[1] = increasing peptide concentrations added to TRI (IGF-I+IGFBP-3+VN; 10 nM), 15 hours

T1 sequence (P17936 28-291): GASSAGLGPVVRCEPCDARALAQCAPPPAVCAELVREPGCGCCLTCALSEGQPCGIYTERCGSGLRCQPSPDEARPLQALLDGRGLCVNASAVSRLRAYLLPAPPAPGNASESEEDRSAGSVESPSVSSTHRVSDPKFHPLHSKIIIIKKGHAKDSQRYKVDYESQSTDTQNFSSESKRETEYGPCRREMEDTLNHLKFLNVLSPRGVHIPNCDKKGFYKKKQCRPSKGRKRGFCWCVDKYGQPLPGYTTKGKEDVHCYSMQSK

## KTYLFKGSQYWRFEDG [Neg, reference compound]
IGFBP-3
  Binding of IGFBP-3 on VN-peptide array (positive spot or not): did not show any binding
IGFBP-5
  Binding of IGFBP-5 on VN-peptide array (positive spot or not): did not show any binding
MCF-7 cells; [1]
  Inhibition of TRI-stimulated MCF-7 cell migration: no inhibition of cell migration was observed

## LFSSEESNLGANNYDDYRMDWL (listed as Homo sapiens) [Peptide P7, human VN motif 7 mimic]
IGFBP-3
  Binding of IGFBP-3 on VN-peptide array (positive spot or not): does not bind
IGFBP-5
  Binding of IGFBP-5 on VN-peptide array (positive spot or not): does not bind
MCF-7 cells; 30 nM peptide dose, TRI 10 nM, 15 hours (most significant inhibition)
  Inhibition of TRI-stimulated MCF-7 cell migration: returned to the ‘VN only’ treatment levels
MCF-7 cells; [1]
  Inhibition of TRI-stimulated MCF-7 cell migration: dose dependent inhibition
